Measurements reported in US20240189442A1 (ALLYGEN GROUP, published 2024).
No end group written: not given here.

Target: T1, Ab2B
T1 construct: The variable domains are the same in both; also called antibody Ab2B
Assay: Biacore; Ab2B captured on anti-human Fab chip, peptide as analyte
Protocol: Anti-human Fab was ligated to Biacore chips at pH 4.5. […] TBPs were flowed through the chip as analytes at 30 μL/min. 10 mM glycine at pH 1.5 was used for regeneration of the chip. Conditions were optimized as needed.

T1 sequence (heavy, as listed by the source, chain 1 of 2): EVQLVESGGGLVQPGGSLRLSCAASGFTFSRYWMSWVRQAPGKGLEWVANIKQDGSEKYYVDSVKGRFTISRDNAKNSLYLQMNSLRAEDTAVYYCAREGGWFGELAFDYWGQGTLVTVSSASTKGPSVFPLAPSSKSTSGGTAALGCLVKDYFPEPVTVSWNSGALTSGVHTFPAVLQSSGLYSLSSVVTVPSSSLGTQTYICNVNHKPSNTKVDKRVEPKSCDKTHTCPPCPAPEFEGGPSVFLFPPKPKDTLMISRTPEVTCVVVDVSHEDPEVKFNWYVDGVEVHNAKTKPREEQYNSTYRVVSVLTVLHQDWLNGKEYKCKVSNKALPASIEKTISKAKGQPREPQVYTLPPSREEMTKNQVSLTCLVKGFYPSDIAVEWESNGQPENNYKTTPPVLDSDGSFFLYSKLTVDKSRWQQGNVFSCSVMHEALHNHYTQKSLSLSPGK
T1 sequence (light, as listed by the source, chain 2 of 2): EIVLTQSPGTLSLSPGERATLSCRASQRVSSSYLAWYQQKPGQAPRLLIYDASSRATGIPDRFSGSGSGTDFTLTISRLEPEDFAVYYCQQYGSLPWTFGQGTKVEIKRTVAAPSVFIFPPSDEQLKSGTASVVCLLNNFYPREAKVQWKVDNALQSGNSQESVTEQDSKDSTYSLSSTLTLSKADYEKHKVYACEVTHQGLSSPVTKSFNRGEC

Question: Does {NH2‑(PEG)12}-RSQSRSRYYRQRQRSRRRRRRS (also called TBPA) [SEQ ID NO: 151] bind?
Answer: no binding (tested: 50.0~0.8 nM analyte range)
